Five molecules from patent US20110312891A1, “ENAMEL MATRIX DERIVATIVE FRACTION C” (Straumann Holding AG, priority 2008, published 2011) can be followed below.

One data set concerns osteoblasts. In words: Effect of fraction C, its isoforms and synthetic amelogenin peptides on bone markers in osteoblasts. The format is cell-based. Particulars: for LDH activity in the culture medium: compared with fraction C and the mix of peptides (3113), slightly more toxic effect. The protocol: We have tested synthetic peptides of amelogenin (exon1, 3 and 5) of various lengths.
Fraction C, having a molecular weight of 5250.4 g/mol was used at a final concentration of 5 μg/ml (0.9 μmol/L). The peptides were used in a molar concentration similar to fraction C. WBRA001 enhanced osteocalcin and CD44 expression and secretion similar to fraction C, the smaller peptides had no effect on the bone markers in osteoblasts. 5 kDa amelogenins, isolated from EMD batch 3113 was identified to contain both; C1RP or C2RP (1-43 and 1-45 TRAP), whereas the fraction C isolated from EMD batch 9121 contains not only C1RP and C2R (1-43 and 1-45 TRAP), but 2 further, unidentified minor peaks. The effect of the different isoforms on expression of bone markers was tested on osteoblasts.

A further data set relates to MG63 cells. In words: WST-1 cell proliferation and viability assay. The format is cell-based, human. The conditions noted are these: 1 μg/mL; after 7 days; compared to the negative control. The protocol: Minimum Essential Medium Eagle (MEM)+10% Fetal calf serum +1% Penicilin-Streptomycin (×100)+1% Non Essential Amino Acid Solution (×100)+1% L-Glutamine (200 mM) Seeding density MG63 cells in passage 4 were seeded with a density of 10,000 cells/cm2 on 96 wells culture plates. Sampling was performed after 24 hours and 7 days in vitro.
Furthermore, the proliferation reagent WST-1 test was performed to assess cell proliferation and viability. WST-1 solution was added in a final solution of 1:10 to the monolayer culture and cells were incubated at 37° C. for a further 1 hour. The absorbance of the supernatants was measured spectrophotometrically using VersaMax micro plate reader (Molecular Devices, California, USA) at 420 nm-480 nm with a reference wavelength of 600 nm. Results are reported as optical density (OD).

The subject of data set [1] is MG63 human osteoblast-like cells. In words: Osteoblast differentiation in confluent MG63 cultures treated for 24 hours (DNA, ALP, osteocalcin, OPG, VEGF, FGF-2). Format: cell-based. As for the experimental part:
Methods: Confluent cultures of MG63 human osteoblast-like cells and normal human osteoblasts were treated with or without EMD, recombinant human amelogenin (rhAmel), Fraction A (0.01-100 μg/ml) or Fraction C (0.1-250 μg/ml) for 24 hours. Effects on DNA content and alkaline phosphatase specific activity (ALP), and osteocalcin (OCN), osteoprotegerin (OPG), vascular endothelial growth factor A (VEGF-A) and fibroblast growth factor-2 (FGF-2) levels in the conditioned media were determined.
MG63 osteoblast-like cells, originally isolated from a human osteosarcoma, were obtained from the American Type Culture Collection (Rockville, Md.). […]
MG63 Cells were cultured in Dulbecco's modified Eagle medium (DMEM) containing 10% fetal bovine serum (FBS) and 1% penicillin and streptomycin at 37° C. in an atmosphere of 5% CO2 and 100% humidity. […] The levels of osteocalcin in the conditioned media were measured using a commercially available radioimmunoassay kit (Human Osteocalcin RIA Kit, Biomedical Technologies, Stoughton, Mass.) and normalized to DNA content. […] Osteoprotegerin was measured using enzyme-linked immunosorbent assay (ELISA) kit (DY805 Osteoprotegerin DuoSet, R&D Systems, Minneapolis, Minn.). VEGF was assesseds using an ELISA kit (RnD Systems). […] The absorbance of the samples was read using a microplate reader and the results analyzed using a standard curve. […]

For a further data set, the system named is primary osteoblasts. The data set can be described thus: Affymetrix gene chip analysis of primary osteoblasts, EMD versus PTH. The format is cell-based, human. The conditions noted are these: 24 h after stimulation; cells of two donors. The protocol:
Commercially available primary human osteoblasts from both femur and tibia of different donors (NHOst cell system; Cambrex, Walkersville, Md., USA) were grown in osteoblast growth media (OGM, Cambrex). Cultured osteoblasts were exposed to hydrocortisone hemisuccinate (200 nM) and h-glycerophosphate (10 mM) (Cambrex) in ambient medium to facilitate mineralization. The phenotype of cells was characterized based on the expression levels of alkaline phosphatase (ALP), collagen type 1, osteocalcin, and CD44 (late differentiation marker), and formation of mineralization nodules.
Primary osteoblasts were cultured in T75 culture flasks and cultured after treatment for 24 h, 72 h or 7d respectively and lysed in 7 ml Trizol solution (Gibco, USA). Trizol lysates were kept at −70° C. until RNA isolation according to the manufacturer's protocols and further processing (Dep. of Medical Biochemistry, Oslo University, Norway). Double stranded cDNA and biotin labeled cRNA probes were made from 5 μg total RNA using the Superscript Choice system (Invitrogen) and the Enzo Bioarray respectively. Procedures were according to recommendations from Affymetrix. […]
To compare the effects of PTH peptides and EMD on primary osteoblasts, cells of two donors were treated synchronously and expression patterns were analysed by affymetrix gene chip analysis. […]

For “C1RP: Peak 1 of Frac C; SEQ.ID.NO: 1, 43AA form MPLPPHPGHPGYINFSYEVLTPLKWYQNMIRHP-YTSYGYEPMG (MPLPPHPGHPGYINFXYEVLTPLKWYQNMIRHPYTSYGYEPMG; MOD_RES (16)..(16) Ser or Glu, wherein Ser is optionally phosphorylated; listed as Sus scrofa) [Fraction C1RP]”, in the data set with osteoblasts, the “LDH activity in the culture medium” value is recorded as “higher LDH activity”. Moreover, in the data set with MG63 cells, the “cell viability and proliferation (WST-1)” value is given as “clear effect”.

As to “C2RP: Peak 2 of Frac C; SEQ.ID.NO: 2, 45AA form MPLPPHPGHPGYINFSYEVLTPLKWYQNMIRHP-YTSYGYEPMGGW (MPLPPHPGHPGYINFXYEVLTPLKWYQNMIRHPYTSYGYEPMGGW; MOD_RES (16)..(16) Ser or Glu, wherein Ser is optionally phosphorylated; listed as Sus scrofa) [Fraction C2RP]”, the “LDH activity in the culture medium” value in the data set on osteoblasts is “higher LDH activity”. In addition, in the data set on MG63 cells, the “cell viability and proliferation (WST-1)” value was “clear effect”.

As to “MPLPP HPGHPGYINFSYEVLTPLKWYQSIRPP-OH [WBRA001]”, the “osteocalcin and CD44 expression and secretion” value with osteoblasts (molar concentration similar to fraction C, 5 μg/ml (0.9 μmol/L)) is given as “enhanced”.

B1: rhAmel: recombinant human amelogenin over-expressed in Escherichia Coli (protein, UniProt Q99217 17-191, looked up)
Amelogenin, X isoform: MPLPPHPGHPGYINFSYEVLTPLKWYQSIRPPYPSYGYEPMGGWLHHQIIPVLSQQHPPTHTLQPHHHIPVVPAQQPVIPQQPMMPVPGQHSMTPIQHHQPNLPPPAQQPYQPQPVQPQPHQPMQPQPPVHPMQPLPPQPPLPPMFPMQPLPPMLPDLTLEAWPSTDKTKREEVD
For the molecule B1, the “concentration of maximal increases in osteocalcin” value in data set [1] (FIG. 4) was 1 µg/mL. In addition, the “osteocalcin production (dose response)” value in data set [1] (FIG. 4, N=6 cultures per variable, p<0.05 v. control) is “biphasic increase”.

B2: PTH: PTH peptides compared with EMD on primary osteoblasts (protein, UniProt P01270 32-115, looked up)
Parathyroid hormone: SVSEIQLMHNLGKHLNSMERVEWLRKKLQDVHNFVALGAPLAPRDAGSQRPRKKEDNVLVESHEKSLGEADKADVNVLTKAKSQ
modifications: Parathyroid hormone
notes: PTH peptides compared with EMD on primary osteoblasts
For B2, the “genes more than 2-fold changed in the same direction with both EMD and PTH from non-treated controls” value in the data set on primary osteoblasts is listed as 254 genes.
